Laboratory results: patent US20090280535, “SUMO Fusion Protein Expression System for Producing Native Proteins” (Academia Sinica, published 2009)

Columns and labels:
RecA [1] = target: T1, RecA (Escherichia coli, UniProt P0A7G6 P0A7G6:2-353); assay: competition; 80 uM oligo competes against 8 uM ds-PhiX174 in EMSA; conditions: tags: none (released from His6-Smt3-RecA by Ulp1 403-621 cleavage)
Method: (§1) The biological activities of the purified RecA protein was tested as follows. First, an electrophoretic mobility shift assay was performed to examine whether the RecA protein was capable of binding to DNA, following the method described in Chen et al., Proc. Natl. Acad Sci USA 101: 10572-10577 (2004). […] Six oligonucleotides, i.e., (CT)₂₀, (CA)₂₀, (GT)₂₀, (GA)₂₀, (AT)₂₀, and (CG)₂₀ described in Biet et al., Nucleic Acids Res 27:596-600 (1999), were used to determine the preference of the RecA protein for binding to double-strand (ds) or single-strand (ss) DNAs. 80 μM of each of the oligonucleotides was incubated with the RecA protein in the presence of circular ds-ΦX174 (8 μM) DNA and then a mobility shift assay was performed to examine the binding between the RecA protein and the ds- or ss-DNAs.

RecA [2] = target: T1, RecA; assay: competition; 80 uM oligo competes against 8 uM ds-PhiX174 in EMSA; no significant effect at 2, 4 or 8 uM; conditions: tags: none (released from His6-Smt3-RecA by Ulp1 403-621 cleavage)
Method: as §1

T1 sequence (P0A7G6 2-353, one chain of several): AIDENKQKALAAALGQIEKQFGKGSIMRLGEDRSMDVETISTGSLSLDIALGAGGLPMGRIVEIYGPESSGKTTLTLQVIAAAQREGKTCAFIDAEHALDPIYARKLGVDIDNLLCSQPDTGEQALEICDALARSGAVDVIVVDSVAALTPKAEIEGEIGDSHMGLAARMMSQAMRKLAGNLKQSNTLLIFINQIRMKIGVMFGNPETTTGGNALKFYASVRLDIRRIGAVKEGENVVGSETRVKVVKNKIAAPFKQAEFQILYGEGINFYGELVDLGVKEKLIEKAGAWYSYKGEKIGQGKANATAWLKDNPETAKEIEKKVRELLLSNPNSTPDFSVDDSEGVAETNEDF

| Binder | binding result (RecA [1]) | binding result (RecA [2]) |
| --- | --- | --- |
| ATATATATATATATATATATATATATATATATATATATAT (ssDNA) [(AT)20] | binds | – |
| GAGAGAGAGAGAGAGAGAGAGAGAGAGAGAGAGAGAGAGA (ssDNA) [(GA)20] | binds | – |
| CACACACACACACACACACACACACACACACACACACACA (ssDNA) [(CA)20] | binds | – |
| CTCTCTCTCTCTCTCTCTCTCTCTCTCTCTCTCTCTCTCT (ssDNA) [(CT)20] | – | binds |
| GTGTGTGTGTGTGTGTGTGTGTGTGTGTGTGTGTGTGTGT (ssDNA) [(GT)20] | binds | – |
| CGCGCGCGCGCGCGCGCGCGCGCGCGCGCGCGCGCGCGCG (ssDNA) [(CG)20] | binds | – |
